# Results published in patent WO2022025129A1 (dated 2022).
# B1: 3B6 antibody (recombinant human anti-HBs monoclonal antibody) (antibody, V domains shown)
# VH: EVQLVESGGGVVQPGKSLRVSCAASGFSFSNYGMHWVRQAPGKGLEWVSVIWRDGSHQYYADSVKGRFTVSRDNARDTLFLQMDGLRAEDTAVYYCAREDPAIVLPVLDHWGRGTLVTVSS
# VL: AAAMTQSPVSLSASVGDRVTITCRASQRINSYLNWYQQKPGKAPKLLIYGASNLPSGVPSRFSGSGSGTYFTLTISSLQPEDLATYYCQQGYSTPLLSFGPGTKVEIKR
# notes: also called 3B6 clone
# B2: 5A4 antibody (recombinant human anti-HBs monoclonal antibody) (antibody, V domains shown)
# VH: QVQLQESGPGLVKPSDTLSLTCTVSGGSISGHYWSWIRRLPGGGLEWIGYIHYSGITNYNPSLKSRVTMSVDMSKNQFSLRLRSVTATDTAVYYCARGDATYGYWGQGAPVTVSS
# VL: AAAMTQSPFTLPVTPGEPASISCRSSQSLLHRNGYNYVNWYLRKPGQSPQLLISLGSDRASGVPDRFRGSGAGTDFTLKISRVEAEDVGVYYCMQALRTPWTFGQGTKVEIKR
# notes: also called 5A4 clone
# B3: M2-11 antibody (recombinant human anti-HBs monoclonal antibody) (antibody, V domains shown)
# VH: QVQLVESGGGLVKPGESLRLSCAASGFMFSGHSMVWVRQAPGKGLEWVSFIGSTGEFISYADSVRGRFTISRDNAKNSLYLQMNSLRADDTAVYYCAREQGTRGRYYYYGLDVWGQGTTVTVSS
# VL: AAAMTQTPPSLSLSPGESATLSCRASQSVSTYLAWYQQKPGQAPRLLIYDAFNRATGIPARFSGSGSGTDFTLTISGLEPEDFAVYYCQQRGHWPLTFGGGTKVEIKR
# notes: also called M2-11 clone
# Target: T1, human insulin (Fujifilm Wako Pure Chemical) (human, UniProt P01308 25-54; P01308 90-110)
# T1 construct: also called human-derived component
# T1 sequence (P01308 25-54 limits assumed, chain 1 of 2): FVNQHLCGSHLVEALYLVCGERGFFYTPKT
# T1 sequence (P01308 90-110 limits assumed, chain 2 of 2): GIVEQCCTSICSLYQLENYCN
# Assay: ELISA, human insulin coated on the plate, anti-human IgG-HRP
row,Binder,binding result
1,B1,no binding (tested: 特異抗原であるHBsへの結合が飽和する濃度の10倍以上の抗体濃度)
2,B2,no binding (tested: 特異抗原であるHBsへの結合が飽和する濃度の10倍以上の抗体濃度)
3,B3,no binding (tested: 特異抗原であるHBsへの結合が飽和する濃度の10倍以上の抗体濃度)

# Target: HBs antigen of genotype C HBV (infectious virus) (Hepatitis B virus (HBV) genotype C)
# Assay: cell-based or functional assay
row,Binder,"neutralization activity against commercially available HBIG (reduction of HBe antigen, PXB cells)"
1,B1,≥ 10 fold against commercially available HBIG
2,B2,≥ 10 fold against commercially available HBIG
3,B3,≥ 10 fold against commercially available HBIG
